Data: article PMC9418145, “Structure of the human NK cell NKR-P1:LLT1 receptor:ligand complex reveals clustering in the immune synapse” (Nature Communications, 2022)

Columns and labels:
[1] = biological target: soluble human NKR-P1 ectodomain (C-type lectin-like domain, Gly90-Ser225), glycosylated with uniform GlcNAc2Man5 N-glycans (human) (UniProt Q12918); experiment: AUC; sedimentation velocity of equimolar mixtures of glycosylated NKR-P1 with LLT1 or LLT1^SIM at increasing concentrations, 20 °C, SEC buffer; isotherms of weight-average S fitted to A + B ⇔ AB or A + B ⇔ AB + B ⇔ BAB (A the LLT1 dimer, B the NKR-P1 monomer)
AICL (Homo sapiens) = AICL (Homo sapiens) (UniProt Q92478); conditions: cited from earlier work
[2] = crystal structure comparison of homodimers; conditions: glycan lost; control: glycosylated NKR-P1 (GlcNAc2Man5), 5MGR
[3] = analytical ultracentrifugation, sedimentation velocity; conditions: glycan lost; control: wild-type NKR-P1 ectodomain
CD spectroscopy = conditions: glycan lost; control: wild-type NKR-P1 ectodomain
[4] = biological target: T1, soluble human NKR-P1 ectodomain (C-type lectin-like domain, Gly90-Ser225), glycosylated with uniform … (human, UniProt Q12918 90-225, Asn-GlcNAc2Man5 N-glycans; potential N-glycosylation sites Asn116, Asn157, Asn169); experiment: not stated; overall Kd of this study as told in the discussion; the experiment behind it (AUC or MST) is not named there; conditions: both partners purified
T1 construct: residues at the N-terminus of the secreted protein, left from the N-terminal secretion leader of pOPINGGTneo; human NKR-P1 (CD161), extracellular CTL domain, Gly90-Ser225; For MST this protein was labelled with Atto 488 NHS-ester at pH 6.5; Monomeric in solution (AUC), a non-covalent helix α1-centered homodimer in the crystal; Ile168 stands in the structure; also called CD161; NKR-P1_glyco; …
T1 sequence: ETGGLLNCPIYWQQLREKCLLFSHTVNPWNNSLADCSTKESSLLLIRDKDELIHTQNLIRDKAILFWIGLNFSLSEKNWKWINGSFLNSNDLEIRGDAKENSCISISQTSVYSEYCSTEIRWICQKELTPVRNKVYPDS

[5] = biological target: the molecule itself; experiment: AUC; sedimentation velocity of the single glycosylated proteins, 48,000 rpm, 20 °C, 10 mM HEPES pH 7.5, 150 mM NaCl, 10 mM NaN3
[6] = biological target: T1, soluble human NKR-P1 ectodomain (C-type …); experiment: AUC; sedimentation velocity of equimolar mixtures of glycosylated NKR-P1 with LLT1 or LLT1^SIM at increasing concentrations, 20 °C, SEC buffer; isotherms of weight-average S fitted to A + B ⇔ AB or A + B ⇔ AB + B ⇔ BAB (A the LLT1 dimer, B the NKR-P1 monomer); conditions: both partners purified

Sequence of AICL (Homo sapiens) (Q92478 whole entry): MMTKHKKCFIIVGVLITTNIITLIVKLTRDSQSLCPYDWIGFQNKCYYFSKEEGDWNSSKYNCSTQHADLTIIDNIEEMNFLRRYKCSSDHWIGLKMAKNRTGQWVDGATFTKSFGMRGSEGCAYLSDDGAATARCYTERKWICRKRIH

Molecule: LLT1^SIM, N120R, R153E, K169A secondary interaction mode triple mutant of the soluble LLT1 ectodomain (from UniProt Q9UHP7 72-191) (domain or fragment)
- fold weaker overall affinity than the wild-type LLT1 [1]: 3 fold

Molecule: NKp80 (from UniProt Q9NZS2)
- Kd (AICL (Homo sapiens)): 2.3 µM

Molecule: NKR-P1 (CD161): Endo F1
- structure_or_conformation, other: pairwise Cα RMSD [2]: no change

Molecule: NKR-P1 (CD161): S159A
- oligomerisation [3]: increases
- stability_or_folding (CD spectroscopy): no change

B1: stabilized H176C form of the soluble human LLT1 ectodomain (Gln72-Val191), glycosylated (domain or fragment, UniProt Q9UHP7 72-191, looked up)
chain: QAACPESWIGFQRKCFYFSDDTKNWTSSQRFCDSQDADLAQVESFQELNFLLRYKGPSDHWIGLSREQGQPWKWINGTEWTRQFPILGAGECAYLNDKGASSARCYTERKWICSKSDIHV
modifications: GlcNAc2Man5 glycans
notes: human LLT1, soluble ectodomain Gln72-Val191 with the stabilising mutation H176C; also called wild-type LLT1; soluble LLT1; source: HEK293S GnTI- cells, transiently transfected, secreted, purified (IMAC on Talon, SEC)
- Kd [4]: 90 µM
- stoichiometry N [5]: 2
- KD of the primary interaction mode [6]: 50 µM
